The target in series [1] is Cys29 (UniProt position 29, FWATWCGPCKM). To be noted: reduced active-site thiol(s) implied, not stated; cited from earlier work.
Series [2] has as its target Cys29 (UniProt position 29, FWATWCGTSKM). To be noted: reduced active-site thiol(s) implied, not stated; cited from earlier work.
Another series addresses Cys32 (UniProt position 33, FWAEWCGPCKM). The conditions noted are these: reduced active-site thiol(s) implied, not stated; cited from earlier work.
The next series concerns the target Cys10 (UniProt position 10, TIYFICTGNSA). Nature of the series: UV-vis. The conditions noted are these: poly buffer: 1 mM EDTA, 10 mM Na-borate, 10 mM Na-phosphate, 10 mM Na-citrate (starting pH 8), titrated by stepwise addition of 100 mM HCl; oxidized with arsenate (Cys82-Cys89 disulfide), Cys10 free thiol.
The next series deals with Cys89 (UniProt position 89, DADNNCPILPP). Nature of the series: UV-vis. To be noted: poly buffer: 1 mM EDTA, 10 mM Na-borate, 10 mM Na-phosphate, 10 mM Na-citrate, 10 mM CAPS (starting pH 11.4), titrated by stepwise addition of 100 mM HCl; reduced (DTT-treated, DTT removed), free protein.

In the case of “Thioredoxin (Sa_Trx), wild type (Staphylococcus aureus)”, the pKa in the series with Cys29 [1] is on record as 7.1. With “Thioredoxin (Sa_Trx, Trx1) P31T/C32S (Staphylococcus aureus; P31T;C32S)”, the pKa with Cys29 [2] is recorded as 6.4. For “Thioredoxin 1 (Ec_Trx1) (Escherichia coli)”, in the series with Cys32, the pKa was 7.1. As for “Arsenate reductase ArsC (plasmid pI258), C15A, oxidized form (Staphylococcus aureus; C15A)”, in the series with Cys10, the pKa is 6.8. On to “Arsenate reductase ArsC (plasmid pI258), C10S/C15A/C82A triple mutant (Sa_ArsC^Trip) (Staphylococcus aureus; C10S;C15A;C82A)”, for which the pKa with Cys89 was found to be 9.5.

These data come from article PMC2714181.
